Seven substances from patent US20090175889A1 can be followed below.

What all share (test): cell-based or functional assay
The target of assay [1] is human CXCR4 (on U87 human astroglioma cells stably transduced with human CXCR4) (human) (UniProt P61073).
The target of assay [2] is HIV-1 89.6 Env glycan mutant NV3 (N301Q) (HIV-1 isolate 89.6) (UniProt Q73372).
Assay [3] deals with HIV-1 89.6 Env glycan mutant N7 (N197Q) (HIV-1 isolate 89.6) (UniProt Q73372).
Assay [4] addresses HIV-1 89.6 Env triple glycan mutant N67V3 (N6, N7 and NV3: N187Q, N197Q, N301Q) (HIV-1 isolate 89.6) (UniProt Q73372).

Sequence of UniProt P61073 (P61073 whole entry): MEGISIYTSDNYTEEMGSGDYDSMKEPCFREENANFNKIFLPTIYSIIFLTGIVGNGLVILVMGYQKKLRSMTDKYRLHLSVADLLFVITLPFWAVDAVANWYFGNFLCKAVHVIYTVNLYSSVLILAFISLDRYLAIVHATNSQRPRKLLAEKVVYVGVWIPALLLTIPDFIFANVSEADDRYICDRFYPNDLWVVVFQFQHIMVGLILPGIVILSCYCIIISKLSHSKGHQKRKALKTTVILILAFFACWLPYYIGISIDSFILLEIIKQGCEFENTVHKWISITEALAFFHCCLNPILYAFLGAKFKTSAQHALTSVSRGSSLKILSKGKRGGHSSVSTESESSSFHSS

In turn, “HIV-1 89.6 Env glycan mutant N7 (N197Q) (from UniProt Q73372 32-853)” yielded a relative infectivity of pseudotyped virus in U87-CXCR4 cells in the absence of CD4 (vs WT virus) in assay [1] of 10 fold.

As for “HIV-1 89.6 Env glycan mutant NV3 (N301Q) (from UniProt Q73372 32-853)”, in assay [1], the increase in infectivity in CD4-negative cells as compared to WT Env was in the range of 2 to 3 fold.

monoclonal antibody 2G12 yielded a decrease in neutralization sensitivity (vs WT) in assay [2] of 2 to 3 fold. For the same substance, the increase in neutralization sensitivity (vs WT) in assay [3] turned out to be 3 fold. As to monoclonal antibody 4E10, the increase in neutralization sensitivity (vs WT) in assay [4] and in assay [3] was 3 fold in each case. In the case of monoclonal antibody 17b, the sensitivity to 17b without sCD4, compared to the WT or the N6 and NV3 mutants in the presence of sCD4 in assay [4] and in assay [3] was 30 fold throughout. For the substance monoclonal antibody IgG1b12, the enhancement in neutralization sensitivity compared to wild-type 89.6 in assay [3] came out at 60 fold.

As to “recombinant sCD4-Ig (from UniProt P01730 26-204) (Fc fusion)”, the enhancement in neutralization sensitivity compared to wild-type 89.6 in assay [3] was 50 fold.
